Laboratory results: patent US20140087995A1 (published 2014)
Numbered stars: 1 amine (or outer) side, 2 acyl side, 3 side chain; on linkers, the order of the positions; unused ones are H or OH. Bridge positions count the residues as written; N and C are the ends. Side chains are listed from the residue outwards. Ends that are not written are not given here. * marks the point of attachment. C20 diacid = O=C(O)CCCCCCCCCCCCCCCCCCC(=O)*; γGlu = O=C(O)[C@H](CCC(=O)[*:2])N[*:1]

T1: human calcitonin receptor (human, UniProt P30988 25-474)
T1 construct: whole, on cells; also called hCTR; hCT
T1 sequence (looked up): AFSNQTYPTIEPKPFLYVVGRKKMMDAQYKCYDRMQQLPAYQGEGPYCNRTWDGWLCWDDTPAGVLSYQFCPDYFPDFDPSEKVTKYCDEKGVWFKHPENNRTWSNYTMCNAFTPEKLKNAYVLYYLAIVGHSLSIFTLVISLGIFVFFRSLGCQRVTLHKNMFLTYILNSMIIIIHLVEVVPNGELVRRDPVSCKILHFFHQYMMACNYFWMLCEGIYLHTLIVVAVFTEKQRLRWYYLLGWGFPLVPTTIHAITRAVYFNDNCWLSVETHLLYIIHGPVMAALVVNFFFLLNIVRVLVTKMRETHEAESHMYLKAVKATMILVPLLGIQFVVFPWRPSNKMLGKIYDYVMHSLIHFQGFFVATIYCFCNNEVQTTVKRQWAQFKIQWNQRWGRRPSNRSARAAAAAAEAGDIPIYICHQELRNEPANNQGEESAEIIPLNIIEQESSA

B1: N^ε1-[(4S)-4-carboxy-4-(19-carboxynonadecanoylamino)butanoyl]-[Ala14,Arg17,Pro21,Pro27,Pro34]-h-amylin (peptide)
peptide: K([γGlu-C20 diacid])CNTATCATQRLAAFLRHSSPNFGAIPSSTNVGPNTY-NH2
modifications: disulfide 2-7; N-terminus assumed
SMILES: CC[C@H](C)[C@H](NC(=O)[C@H](C)NC(=O)CNC(=O)[C@H](Cc1ccccc1)NC(=O)[C@H](CC(N)=O)NC(=O)[C@@H]1CCCN1C(=O)[C@H](CO)NC(=O)[C@H](CO)NC(=O)[C@H](Cc1c[nH]cn1)NC(=O)[C@H](CCCNC(=N)N)NC(=O)[C@H](CC(C)C)NC(=O)[C@H](Cc1ccccc1)NC(=O)[C@H](C)NC(=O)[C@H](C)NC(=O)[C@H](CC(C)C)NC(=O)[C@H](CCCNC(=N)N)NC(=O)[C@H](CCC(N)=O)NC(=O)[C@@H](NC(=O)[C@H](C)NC(=O)[C@@H]1CSSC[C@H](NC(=O)[C@@H](N)CCCCNC(=O)CC[C@H](NC(=O)CCCCCCCCCCCCCCCCCCC(=O)O)C(=O)O)C(=O)N[C@@H](CC(N)=O)C(=O)N[C@@H]([C@@H](C)O)C(=O)N[C@@H](C)C(=O)N[C@@H]([C@@H](C)O)C(=O)N1)[C@@H](C)O)C(=O)N1CCC[C@H]1C(=O)N[C@@H](CO)C(=O)N[C@@H](CO)C(=O)N[C@H](C(=O)N[C@@H](CC(N)=O)C(=O)N[C@H](C(=O)NCC(=O)N1CCC[C@H]1C(=O)N[C@@H](CC(N)=O)C(=O)N[C@H](C(=O)N[C@@H](Cc1ccc(O)cc1)C(N)=O)[C@@H](C)O)C(C)C)[C@@H](C)O
notes: also called compound 94
B2: N^ε1-[(4S)-4-carboxy-4-(19-carboxynonadecanoylamino)butanoyl]-[Arg14,Arg17,Pro21,Pro27]-h-amylin (peptide)
peptide: K([γGlu-C20 diacid])CNTATCATQRLARFLRHSSPNFGAIPSSTNVGSNTY-NH2
modifications: disulfide 2-7; N-terminus assumed
SMILES: CC[C@H](C)[C@H](NC(=O)[C@H](C)NC(=O)CNC(=O)[C@H](Cc1ccccc1)NC(=O)[C@H](CC(N)=O)NC(=O)[C@@H]1CCCN1C(=O)[C@H](CO)NC(=O)[C@H](CO)NC(=O)[C@H](Cc1c[nH]cn1)NC(=O)[C@H](CCCNC(=N)N)NC(=O)[C@H](CC(C)C)NC(=O)[C@H](Cc1ccccc1)NC(=O)[C@H](CCCNC(=N)N)NC(=O)[C@H](C)NC(=O)[C@H](CC(C)C)NC(=O)[C@H](CCCNC(=N)N)NC(=O)[C@H](CCC(N)=O)NC(=O)[C@@H](NC(=O)[C@H](C)NC(=O)[C@@H]1CSSC[C@H](NC(=O)[C@@H](N)CCCCNC(=O)CC[C@H](NC(=O)CCCCCCCCCCCCCCCCCCC(=O)O)C(=O)O)C(=O)N[C@@H](CC(N)=O)C(=O)N[C@@H]([C@@H](C)O)C(=O)N[C@@H](C)C(=O)N[C@@H]([C@@H](C)O)C(=O)N1)[C@@H](C)O)C(=O)N1CCC[C@H]1C(=O)N[C@@H](CO)C(=O)N[C@@H](CO)C(=O)N[C@H](C(=O)N[C@@H](CC(N)=O)C(=O)N[C@H](C(=O)NCC(=O)N[C@@H](CO)C(=O)N[C@@H](CC(N)=O)C(=O)N[C@H](C(=O)N[C@@H](Cc1ccc(O)cc1)C(N)=O)[C@@H](C)O)C(C)C)[C@@H](C)O
notes: also called compound 83
B3: N^ε1-[(4S)-4-carboxy-4-(19-carboxynonadecanoylamino)butanoyl]-[Glu14,Arg17,Pro21,Pro27,Pro34,Arg35]-h-amylin (peptide)
peptide: K([γGlu-C20 diacid])CNTATCATQRLAEFLRHSSPNFGAIPSSTNVGPRTY-NH2
modifications: disulfide 2-7; N-terminus assumed
SMILES: CC[C@H](C)[C@H](NC(=O)[C@H](C)NC(=O)CNC(=O)[C@H](Cc1ccccc1)NC(=O)[C@H](CC(N)=O)NC(=O)[C@@H]1CCCN1C(=O)[C@H](CO)NC(=O)[C@H](CO)NC(=O)[C@H](Cc1c[nH]cn1)NC(=O)[C@H](CCCNC(=N)N)NC(=O)[C@H](CC(C)C)NC(=O)[C@H](Cc1ccccc1)NC(=O)[C@H](CCC(=O)O)NC(=O)[C@H](C)NC(=O)[C@H](CC(C)C)NC(=O)[C@H](CCCNC(=N)N)NC(=O)[C@H](CCC(N)=O)NC(=O)[C@@H](NC(=O)[C@H](C)NC(=O)[C@@H]1CSSC[C@H](NC(=O)[C@@H](N)CCCCNC(=O)CC[C@H](NC(=O)CCCCCCCCCCCCCCCCCCC(=O)O)C(=O)O)C(=O)N[C@@H](CC(N)=O)C(=O)N[C@@H]([C@@H](C)O)C(=O)N[C@@H](C)C(=O)N[C@@H]([C@@H](C)O)C(=O)N1)[C@@H](C)O)C(=O)N1CCC[C@H]1C(=O)N[C@@H](CO)C(=O)N[C@@H](CO)C(=O)N[C@H](C(=O)N[C@@H](CC(N)=O)C(=O)N[C@H](C(=O)NCC(=O)N1CCC[C@H]1C(=O)N[C@@H](CCCNC(=N)N)C(=O)N[C@H](C(=O)N[C@@H](Cc1ccc(O)cc1)C(N)=O)[C@@H](C)O)C(C)C)[C@@H](C)O
B4: N^ε1-[(4S)-4-carboxy-4-(19-carboxynonadecanoylamino)butanoyl]-[Arg17,Pro21,Pro27,Arg34]-h-amylin (peptide)
peptide: K([γGlu-C20 diacid])CNTATCATQRLANFLRHSSPNFGAIPSSTNVGRNTY-NH2
modifications: disulfide 2-7; N-terminus assumed
SMILES: CC[C@H](C)[C@H](NC(=O)[C@H](C)NC(=O)CNC(=O)[C@H](Cc1ccccc1)NC(=O)[C@H](CC(N)=O)NC(=O)[C@@H]1CCCN1C(=O)[C@H](CO)NC(=O)[C@H](CO)NC(=O)[C@H](Cc1c[nH]cn1)NC(=O)[C@H](CCCNC(=N)N)NC(=O)[C@H](CC(C)C)NC(=O)[C@H](Cc1ccccc1)NC(=O)[C@H](CC(N)=O)NC(=O)[C@H](C)NC(=O)[C@H](CC(C)C)NC(=O)[C@H](CCCNC(=N)N)NC(=O)[C@H](CCC(N)=O)NC(=O)[C@@H](NC(=O)[C@H](C)NC(=O)[C@@H]1CSSC[C@H](NC(=O)[C@@H](N)CCCCNC(=O)CC[C@H](NC(=O)CCCCCCCCCCCCCCCCCCC(=O)O)C(=O)O)C(=O)N[C@@H](CC(N)=O)C(=O)N[C@@H]([C@@H](C)O)C(=O)N[C@@H](C)C(=O)N[C@@H]([C@@H](C)O)C(=O)N1)[C@@H](C)O)C(=O)N1CCC[C@H]1C(=O)N[C@@H](CO)C(=O)N[C@@H](CO)C(=O)N[C@H](C(=O)N[C@@H](CC(N)=O)C(=O)N[C@H](C(=O)NCC(=O)N[C@@H](CCCNC(=N)N)C(=O)N[C@@H](CC(N)=O)C(=O)N[C@H](C(=O)N[C@@H](Cc1ccc(O)cc1)C(N)=O)[C@@H](C)O)C(C)C)[C@@H](C)O
notes: also called compound 79
B5: N^ε1-[(4S)-4-carboxy-4-(19-carboxynonadecanoylamino)butanoyl]-[Glu14,Arg17,Pro21,Pro27,Pro34,Glu35]-h-amylin (peptide)
peptide: K([γGlu-C20 diacid])CNTATCATQRLAEFLRHSSPNFGAIPSSTNVGPETY-NH2
modifications: disulfide 2-7; N-terminus assumed
SMILES: CC[C@H](C)[C@H](NC(=O)[C@H](C)NC(=O)CNC(=O)[C@H](Cc1ccccc1)NC(=O)[C@H](CC(N)=O)NC(=O)[C@@H]1CCCN1C(=O)[C@H](CO)NC(=O)[C@H](CO)NC(=O)[C@H](Cc1c[nH]cn1)NC(=O)[C@H](CCCNC(=N)N)NC(=O)[C@H](CC(C)C)NC(=O)[C@H](Cc1ccccc1)NC(=O)[C@H](CCC(=O)O)NC(=O)[C@H](C)NC(=O)[C@H](CC(C)C)NC(=O)[C@H](CCCNC(=N)N)NC(=O)[C@H](CCC(N)=O)NC(=O)[C@@H](NC(=O)[C@H](C)NC(=O)[C@@H]1CSSC[C@H](NC(=O)[C@@H](N)CCCCNC(=O)CC[C@H](NC(=O)CCCCCCCCCCCCCCCCCCC(=O)O)C(=O)O)C(=O)N[C@@H](CC(N)=O)C(=O)N[C@@H]([C@@H](C)O)C(=O)N[C@@H](C)C(=O)N[C@@H]([C@@H](C)O)C(=O)N1)[C@@H](C)O)C(=O)N1CCC[C@H]1C(=O)N[C@@H](CO)C(=O)N[C@@H](CO)C(=O)N[C@H](C(=O)N[C@@H](CC(N)=O)C(=O)N[C@H](C(=O)NCC(=O)N1CCC[C@H]1C(=O)N[C@@H](CCC(=O)O)C(=O)N[C@H](C(=O)N[C@@H](Cc1ccc(O)cc1)C(N)=O)[C@@H](C)O)C(C)C)[C@@H](C)O
B6: N^ε1-[(4S)-4-carboxy-4-(19-carboxynonadecanoylamino)butanoyl]-[Glu14,Arg17,Pro21,Pro27,Arg34,Glu35]-h-amylin (peptide)
peptide: K([γGlu-C20 diacid])CNTATCATQRLAEFLRHSSPNFGAIPSSTNVGRETY-NH2
modifications: disulfide 2-7; N-terminus assumed
SMILES: CC[C@H](C)[C@H](NC(=O)[C@H](C)NC(=O)CNC(=O)[C@H](Cc1ccccc1)NC(=O)[C@H](CC(N)=O)NC(=O)[C@@H]1CCCN1C(=O)[C@H](CO)NC(=O)[C@H](CO)NC(=O)[C@H](Cc1c[nH]cn1)NC(=O)[C@H](CCCNC(=N)N)NC(=O)[C@H](CC(C)C)NC(=O)[C@H](Cc1ccccc1)NC(=O)[C@H](CCC(=O)O)NC(=O)[C@H](C)NC(=O)[C@H](CC(C)C)NC(=O)[C@H](CCCNC(=N)N)NC(=O)[C@H](CCC(N)=O)NC(=O)[C@@H](NC(=O)[C@H](C)NC(=O)[C@@H]1CSSC[C@H](NC(=O)[C@@H](N)CCCCNC(=O)CC[C@H](NC(=O)CCCCCCCCCCCCCCCCCCC(=O)O)C(=O)O)C(=O)N[C@@H](CC(N)=O)C(=O)N[C@@H]([C@@H](C)O)C(=O)N[C@@H](C)C(=O)N[C@@H]([C@@H](C)O)C(=O)N1)[C@@H](C)O)C(=O)N1CCC[C@H]1C(=O)N[C@@H](CO)C(=O)N[C@@H](CO)C(=O)N[C@H](C(=O)N[C@@H](CC(N)=O)C(=O)N[C@H](C(=O)NCC(=O)N[C@@H](CCCNC(=N)N)C(=O)N[C@@H](CCC(=O)O)C(=O)N[C@H](C(=O)N[C@@H](Cc1ccc(O)cc1)C(N)=O)[C@@H](C)O)C(C)C)[C@@H](C)O

These binders were tested against T1, human calcitonin receptor (assay: SPA radioligand competition (125I-calcitonin), membranes of BHK cells with human calcitonin receptor).
Outline: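 BHK hCTR membranes 35 ng/μL + SPA beads 0.05 mg/well; buffer 50 mM Hepes pH 7.4, 1 mM CaCl2, 5 mM MgCl₂, 0.1% OA, 0.02% Tween20. 120 min, 25° C., shaking. Scintillation count; IC50 by one-site binding competition.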
B1 gave an IC50 of 6.86 nM.
In the case of K([γGlu-C20 diacid])CNTATCATQRLAEFLRHSSPNFGAIPSSTNVGPHTY-NH2 (disulfide 2-7), the IC50 is reported as 3.8 nM.
Work on B2 yielded an IC50 of 137 nM.
B3 was tested, and the IC50 was 6.3 nM.
B4 was tested, and the IC50 was 36.4 nM.
B5 was tested, and the IC50 was 1.86 nM.
Work on B6 yielded an IC50 of 6.62 nM.

These binders were tested against T1, human calcitonin receptor (assay: ratio of IC50 at human calcitonin receptor to IC50 at human amylin receptor (SPA competition assays)).
Outline: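 Membranes (35 ng/μL final) + SPA beads, 50 mM Hepes pH 7.4 buffer with 1 mM CaCl2, 5 mM MgCl₂, 0.1% OA, 0.02% Tween20; 120 min, 25° C, shaking; centrifuged, counted; IC₅₀ by one-site binding competition.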
For B1, the “Ratio hCT/hAmylin binding” value was 46.3.
K([γGlu-C20 diacid])CNTATCATQRLAEFLRHSSPNFGAIPSSTNVGPHTY-NH2 (disulfide 2-7) was tested, and the “Ratio hCT/hAmylin binding” value was 21.2.
In the case of B2, the “Ratio hCT/hAmylin binding” value is reported as 146.
With B3 the “Ratio hCT/hAmylin binding” value was 38.6.
With B4 the “Ratio hCT/hAmylin binding” value was 46.1.
B5 was tested, and the “Ratio hCT/hAmylin binding” value was 13.3.
For B6, the “Ratio hCT/hAmylin binding” value was 28.5.
